{"source": "patent US20200353049A1", "key": {"[1]": {"target": "IL-22R1a extracellular domain (ECD) (UniProt Q8N6P7)", "sequence (Q8N6P7 16-228 limits assumed)": "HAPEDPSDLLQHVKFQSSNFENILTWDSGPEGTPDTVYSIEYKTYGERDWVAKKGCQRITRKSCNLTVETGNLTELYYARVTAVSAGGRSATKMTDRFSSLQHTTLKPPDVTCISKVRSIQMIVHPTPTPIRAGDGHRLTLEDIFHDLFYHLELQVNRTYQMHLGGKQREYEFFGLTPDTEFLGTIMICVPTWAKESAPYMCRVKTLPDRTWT", "assay": "binding ELISA on plate-coated IL-22R1a ECD, relative to Reference Standard; 10 mM sodium phosphate, 240 mM sucrose, 0.02% PS20, pH 7.0; control sample"}, "[2]": {"target": "IL-22R1a extracellular domain (ECD) (UniProt Q8N6P7)", "assay": "potency assay (binding ELISA on plate-coated IL-22R1a ECD), relative to reference standard; 40 C stress, day 10"}, "[3]": {"target": "IL-22R1a extracellular domain (ECD) (UniProt Q8N6P7)", "assay": "potency assay (binding ELISA on plate-coated IL-22R1a ECD), relative to reference standard (100%); stored 5 C, 36 months"}, "[4]": {"target": "IL-22R1a extracellular domain (ECD) (UniProt Q8N6P7)", "assay": "binding ELISA on plate-coated IL-22R1a ECD, relative to Reference Standard (100%); stored 5 C, 6 months"}, "[5]": {"target": "IL-22R1a extracellular domain (ECD) (UniProt Q8N6P7)", "assay": "binding ELISA on plate-coated IL-22R1a ECD, relative to Reference Standard (100%); stored -20 C, 6 months"}}, "note": "Several values for one entry are separate records, joined by “and”; a condition that tells them apart may be missing. Identical values can stand only once.", "data": [{"substance": "IL-22 Fc fusion protein", "values": [{"measurement": "Estimated % relative potency (n = 2) (% relative potency)", "setting": "[1]", "result": 89}, {"measurement": "Potency (% relative potency) (% relative potency)", "setting": "[2]", "result": "84 and 65"}, {"measurement": "Potency (% relative potency) (% relative potency)", "setting": "[3]", "result": 67}, {"measurement": "Potency by Binding Assay (% relative potency) (% relative potency)", "setting": "[4]", "result": 71}, {"measurement": "Potency by Binding Assay (% relative potency) (% relative potency)", "setting": "[5]", "result": 73}]}]}
